Values quoted from earlier work, collected in publication PMC3082522.

Molecular target: filamentous actin (Oryctolagus cuniculus) (UniProt P68135)

In the case of espin (from UniProt Q63618), the Kd is given as 220 nM.
